2 molecules from publication PMC10139410, “β-Cyclodextrin Polymer-Based Fluorescence Enhancement Strategy via Host–Guest Interaction for Sensitive Assay of SARS-CoV-2” can be followed below.

For series [1], the target named is T1, SARS-CoV-2 nucleocapsid (N) protein (SARS-CoV-2, UniProt P0DTC9 1-419). The experiment in a line: circular dichroism; 1 uM each, 30 min at 37 C; 280 nm peak increased; Tris-HCl pH 7.6, 37 C, 30 min; 400 nM aptamer, 240 U/mL Exo I, 1.5 mg/mL beta-CDP; salt not in the material held.
For series [2], the target named is T1, SARS-CoV-2 nucleocapsid (N) protein. The experiment in a line: Exo I protection, agarose gel; 600 nM N protein, 400 nM aptamer, 240 U/mL Exo I; labeled form inferred from text on pyrene; Tris-HCl pH 7.6, 37 C, 30 min; 400 nM aptamer, 240 U/mL Exo I, 1.5 mg/mL beta-CDP; salt not in the material held. As to conditions: label: 3'-pyrene.

B1: N protein-binding aptamer (ssDNA)
DNA: GCTGGATGTCGCTTACGACAATATTCCTTAGGGGCACCGCTACATTGACACATCCAGC
For B1, the binding result in series [1] is on record as “binds”.

B2: Pyrene-labeled N protein binding aptamer (ssDNA)
DNA: GCTGGATGTCGCTTACGACAATATTCCTTAGGGGCACCGCTACATTGACACATCCAGC
modifications: 5'-SH (so in the source); 3'-pyrene
B2: the binding result in series [2] was “binds”.
